{"source": "the supplement of paper PMC10567573", "assay": "protein stability index of a GFP-peptide fusion (GPS, HEK-293T) (PSI 1-6); higher = more stable", "data": [{"protein": "ETIQGFWLLTKIDHWNNEKERILL", "note": "[TPRG1 WT]", "values": [{"measurement": "protein stability index", "setting": "parent: IOH59452_16, c terminus: a fixed tail appended", "value": 2.09}]}, {"protein": "AKQIMEETYKMEFMYSGVENKQVV", "values": [{"measurement": "protein stability index", "setting": "parent: IOH53018_117, c terminus: a fixed tail appended", "value": 1.69}]}, {"protein": "HMFTPKLDKMLDPQVWREAATQVF", "values": [{"measurement": "protein stability index", "setting": "parent: IOH55656_48, c terminus: a fixed tail appended", "value": 1.92}]}, {"protein": "ITQSWQVSVRVQPRGRAHLLPNPY", "values": [{"measurement": "protein stability index", "setting": "parent: IOH58746_10, c terminus: a fixed tail appended", "value": 1.87}]}, {"protein": "VGEIVGIITRHNLTYEFLQARLRQ", "values": [{"measurement": "protein stability index", "setting": "parent: IOH52910_141, c terminus: a fixed tail appended", "value": 2.41}]}, {"protein": "ISKKFGDMSYSIRHSISMPAMRNS", "note": "[TPD52L1 WT]", "values": [{"measurement": "protein stability index", "setting": "parent: IOH59709_21, c terminus: a fixed tail appended", "value": 2.22}]}, {"protein": "LLKHPNIVRLHDSISEEGFHYLVF", "values": [{"measurement": "protein stability index", "setting": "parent: IOH54032_12, c terminus: a fixed tail appended", "value": 2.28}]}, {"protein": "MAGCRGSLCCCCRWCCCCGERETR", "values": [{"measurement": "protein stability index", "setting": "parent: IOH52910_1, c terminus: a fixed tail appended", "value": 1.87}]}, {"protein": "QYMNEGELRVLADTYDSVYLHPNS", "values": [{"measurement": "protein stability index", "setting": "parent: IOH53646_27, c terminus: a fixed tail appended", "value": 1.87}]}, {"protein": "PRGRAHLLPNPYQQDFLGLPEELR", "values": [{"measurement": "protein stability index", "setting": "parent: IOH58746_12, c terminus: a fixed tail appended", "value": 3.93}]}, {"protein": "FVAENSSLHPESGQENDATSPHFS", "note": "[CD69 WT]", "values": [{"measurement": "protein stability index", "setting": "parent: IOH57037_2, c terminus: a fixed tail appended", "value": 2.9}]}, {"protein": "FGGSFMAPSPSPVTPAQNNLLQPN", "values": [{"measurement": "protein stability index", "setting": "parent: IOH52952_113, c terminus: a fixed tail appended", "value": 1.96}]}, {"protein": "KAVEEELDAEDRPAWNSKLQYILA", "values": [{"measurement": "protein stability index", "setting": "parent: IOH55656_9, c terminus: a fixed tail appended", "value": 2.81}]}, {"protein": "CAVLDDSIYLVGGYSWSMGAYKSS", "values": [{"measurement": "protein stability index", "setting": "parent: IOH52486_95, c terminus: a fixed tail appended", "value": 2.2}]}, {"protein": "MFFKDRFYMRTNPFYPEVELNFIS", "values": [{"measurement": "protein stability index", "setting": "parent: IOH59103_50, c terminus: a fixed tail appended", "value": 2.27}]}, {"protein": "FCASTRLPPTPLLLFPEEEATNGR", "values": [{"measurement": "protein stability index", "setting": "parent: IOH56238_25, c terminus: a fixed tail appended", "value": 2.88}]}, {"protein": "YQSFVQFLQYYYQSGCLYRLRALG", "note": "[TMEM120A WT]", "values": [{"measurement": "protein stability index", "setting": "parent: IOH55078_39, c terminus: a fixed tail appended", "value": 2.71}]}, {"protein": "WIHCFEGVTAIIFCVALSDYDLVL", "note": "[GNAI1 WT]", "values": [{"measurement": "protein stability index", "setting": "parent: IOH55111_36, c terminus: a fixed tail appended", "value": 2.97}]}, {"protein": "LPQETNLTLKVCKPQAPQKLDPTL", "values": [{"measurement": "protein stability index", "setting": "parent: IOH57371_9, c terminus: a fixed tail appended", "value": 3.74}]}, {"protein": "RQHHHQSSFPGSLPQETNLTLKVC", "values": [{"measurement": "protein stability index", "setting": "parent: IOH57371_7, c terminus: a fixed tail appended", "value": 2.86}]}, {"protein": "FATASAAVPVSTSKPSSDLLDLQP", "values": [{"measurement": "protein stability index", "setting": "parent: IOH52952_56, c terminus: a fixed tail appended", "value": 3.71}]}, {"protein": "EGLLRFSSWPFSIQDVVQPLTLQV", "values": [{"measurement": "protein stability index", "setting": "parent: IOH56238_29, c terminus: a fixed tail appended", "value": 2.09}]}, {"protein": "VKGCSMYVALFPCNECAKLIIQAG", "note": "[DCTD WT]", "values": [{"measurement": "protein stability index", "setting": "parent: IOH54732_19, c terminus: a fixed tail appended", "value": 2.63}]}, {"protein": "FQSISLRKIQFNFPYFRSDRDKRD", "values": [{"measurement": "protein stability index", "setting": "parent: IOH52910_37, c terminus: a fixed tail appended", "value": 1.87}]}, {"protein": "WLYCYDPVMDVWARKQDMNTKRAI", "values": [{"measurement": "protein stability index", "setting": "parent: IOH52486_82, c terminus: a fixed tail appended", "value": 1.93}]}, {"protein": "FVRGDHRDNSPFDGPGGNLAHAFQ", "values": [{"measurement": "protein stability index", "setting": "parent: IOH59103_28, c terminus: a fixed tail appended", "value": 1.98}]}, {"protein": "FAAPSPATTASPAKVDSSGVIDLF", "values": [{"measurement": "protein stability index", "setting": "parent: IOH52952_104, c terminus: a fixed tail appended", "value": 2.35}]}, {"protein": "VEKVLRRWVDEEWPKRERGDPSRH", "note": "[EDARADD WT]", "values": [{"measurement": "protein stability index", "setting": "parent: IOH59721_31, c terminus: a fixed tail appended", "value": 2.77}]}, {"protein": "RGRHEQSPTSRPRKVSSLPPRSC", "values": [{"measurement": "protein stability index", "setting": "parent: IOH58746_22, c terminus: native", "value": 2.58}]}, {"protein": "LNFQIEHHLFPTMPRHNYHKVAPL", "note": "[FADS1 WT]", "values": [{"measurement": "protein stability index", "setting": "parent: IOH55275_64, c terminus: a fixed tail appended", "value": 2.38}]}, {"protein": "YVIGGRNETGYLSSVECYNLETNE", "values": [{"measurement": "protein stability index", "setting": "parent: IOH52486_72, c terminus: a fixed tail appended", "value": 1.96}]}, {"protein": "YVHHQALLDVKNIAHQNKFGEDMP", "values": [{"measurement": "protein stability index", "setting": "parent: IOH53646_199, c terminus: a fixed tail appended", "value": 2}]}, {"protein": "YSSGEFSSGRKWGDDAPKEEVDTG", "values": [{"measurement": "protein stability index", "setting": "parent: IOH53018_58, c terminus: a fixed tail appended", "value": 2.34}]}, {"protein": "KMKTRELHRESSNFDSIYICPSTF", "values": [{"measurement": "protein stability index", "setting": "parent: IOH53646_93, c terminus: a fixed tail appended", "value": 2.14}]}, {"protein": "TGLVGLFVDFFVRLFTQLKFGVVQ", "values": [{"measurement": "protein stability index", "setting": "parent: IOH52910_16, c terminus: a fixed tail appended", "value": 2.3}]}, {"protein": "FAQPMMRPPFGAAAVPGTQLSPSP", "values": [{"measurement": "protein stability index", "setting": "parent: IOH52952_144, c terminus: a fixed tail appended", "value": 3.08}]}, {"protein": "QEGLLDRCVSFQARFAEKEELMLV", "values": [{"measurement": "protein stability index", "setting": "parent: IOH53646_21, c terminus: a fixed tail appended", "value": 1.78}]}, {"protein": "AGSRQALSFEVPPCNYDPEKWIQ", "note": "[MGC16075 WT]", "values": [{"measurement": "protein stability index", "setting": "parent: IOH57016_8, c terminus: native", "value": 1.84}]}, {"protein": "YTPDLPRADVDHAIEKAFQLWSNV", "values": [{"measurement": "protein stability index", "setting": "parent: IOH59103_21, c terminus: a fixed tail appended", "value": 1.83}]}, {"protein": "ILRSQLVTLLVRGVCYSESQSSAS", "values": [{"measurement": "protein stability index", "setting": "parent: IOH52910_125, c terminus: a fixed tail appended", "value": 2.67}]}, {"protein": "EQVFSLGDGVSGGFFGIRDSSFL", "note": "[ZBED1 WT]", "values": [{"measurement": "protein stability index", "setting": "parent: IOH55626_115, c terminus: native", "value": 3.38}]}, {"protein": "NETGYLSSVECYNLETNEWRYVSS", "values": [{"measurement": "protein stability index", "setting": "parent: IOH52486_73, c terminus: a fixed tail appended", "value": 2.24}]}, {"protein": "TIIEPAGESDNPLRFTSGLVVALD", "values": [{"measurement": "protein stability index", "setting": "parent: IOH53018_138, c terminus: a fixed tail appended", "value": 2.83}]}, {"protein": "MELLRTITYQPAASTKMCEQALGK", "values": [{"measurement": "protein stability index", "setting": "parent: IOH57150_1, c terminus: a fixed tail appended", "value": 2.16}]}, {"protein": "SERPLEDLRLRLDHLGWVARGTGS", "note": "[RTN2 WT]", "values": [{"measurement": "protein stability index", "setting": "parent: IOH53506_23, c terminus: a fixed tail appended", "value": 2.32}]}, {"protein": "DLMETTQYMNEGELRVLADTYDSV", "values": [{"measurement": "protein stability index", "setting": "parent: IOH53646_26, c terminus: a fixed tail appended", "value": 2.05}]}, {"protein": "YAELGQCSVFPATDAPEQFISQVT", "values": [{"measurement": "protein stability index", "setting": "parent: IOH57150_92, c terminus: a fixed tail appended", "value": 2.17}]}, {"protein": "FHGTRQYKFDPKTKRILTLQKANS", "values": [{"measurement": "protein stability index", "setting": "parent: IOH59103_74, c terminus: a fixed tail appended", "value": 1.72}]}, {"protein": "YHIYVALEEEIERNKESPVFAPVY", "note": "[HMOX1 WT]", "values": [{"measurement": "protein stability index", "setting": "parent: IOH54938_10, c terminus: a fixed tail appended", "value": 2.02}]}, {"protein": "FSTDAFSSPPQGASPVPESSLTAD", "values": [{"measurement": "protein stability index", "setting": "parent: IOH52952_99, c terminus: a fixed tail appended", "value": 3.2}]}, {"protein": "IVRLHDSISEEGFHYLVFDLVTGG", "values": [{"measurement": "protein stability index", "setting": "parent: IOH54032_13, c terminus: a fixed tail appended", "value": 2.65}]}, {"protein": "IRLVDDAFGKICHMVSDGSWVVRV", "values": [{"measurement": "protein stability index", "setting": "parent: IOH53018_47, c terminus: a fixed tail appended", "value": 3.03}]}, {"protein": "ACAQLATGAACRLVEAVLSGEVLN", "values": [{"measurement": "protein stability index", "setting": "parent: IOH53646_97, c terminus: a fixed tail appended", "value": 2.94}]}]}
